We go through one molecule from paper PMC12126490, “The HP1 box of KAP1 organizes HP1α for silencing of endogenous retroviral elements in embryonic stem cells” (Nature Communications, 2025).

One assay has as its system FL HP1α. Put plainly: mass photometry, mixture of FL HP1α and FL KAP1 (Fig. 6g). The method, then: For MP assays shown in Fig. 6g–I and Supplementary Fig. 12, FL KAP1 and FL HP1α were expressed and purified as described[38],[67]. MP measurements were performed on a Refeyn OneMP instrument (Refeyn Ltd). The calibration was done with a native marker protein standard mix (NativeMark Unstained Protein Standard, Thermo Scientific), which contains proteins ranging from 20 to 1200 kDa. Coverslips (24 × 50 mm, No. 1.5H, Marienfeld) were cleaned by sequential sonication in Milli-Q water, isopropanol and Milli-Q-water, followed by drying with nitrogen. For each acquisition 2 μL of protein solution was applied to 18 μL of buffer (10 mM HEPES pH 7.5, 150 mM NaCl) in a gasket (CultureWellTM Reusable Gasket, Grace Bio-Labs) on a coverslip. To capture the movie, 400 nM HP1α was diluted 10× and 200 nM KAP1 was diluted 10× for a final concentration of 40 nM and 20 nM, respectively. The final molar ratios of HP1α:KAP1 were 1:0, 1:1 and 2:1. Movies were recorded at 999 Hz with an exposure time of 0.95 ms by using the AcquireMP software (Refeyn Ltd). All mass photometry movies were processed and analysed in the DiscoverMP software (Refeyn Ltd).

Assay [1] deals with endogenous retroelements in KAP1 cKO ESCs. Put plainly: ATAC-seq chromatin accessibility. The format is cell-based, mouse. To be noted: exogenous expression in KAP1 cKO ESCs, 2 μg/mL doxycycline, 2 μM 4-OHT 48 h. The method, then:
ESCs were maintained under standard conditions on gelatin-coated plates at 37 °C at 5% CO2 in Knockout DMEM (Thermo Fisher) supplemented with NEAA, GlutaMAX, penicillin/streptomycin (Thermo Fisher), 15% ESC-screened fetal bovine serum (Hyclone), 0.1 mM 2-mercaptoethanol (Fisher), and leukemia-inhibitory factor (LIF). Generation of KAP1 cKO ESCs has been described previously. The piggybac transposon system was used to stably integrate transgenic Flag-tagged WT or V488E mutant KAP1 under control of an rtTA promoter (Systems Biosciences, PB-TRE-EGFP-EF1a-rtTA) into the inducible KAP1 cKO ESCs. Exogenous expression of WT or V488E mutant KAP1 was induced with 2 μg/mL doxycycline for 48 h and maintained in doxycycline prior to endogenous KAP1 deletion. KAP1 deletion was induced with 2 μM 4-OHT (Sigma) treatment for 48 h. […]
The modified ATAC-sequencing protocol Omni-ATAC was performed. […] Number of further PCR cycles required was determined using KAPA Library Quantification Kit (KK4854). […]
Quality of datasets was assessed using the FastQC tool. Raw reads were adapter and quality trimmed using Trimgalore. Trimmed reads were aligned to the mouse reference genome (mm10) with Bowtie2. Multimapping reads were randomly assigned. Optical duplicate reads were filtered using Picard (https://broadinstitute.github.io/picard/). Reads which mapped to the mitochondrial genome were removed with Samtools. […]

B1: FL KAP1: full-length KAP1 (KRAB-associated protein 1, TRIM28, TIF1β) (protein)
chain: MAASAAAASAAAASAASGSPGPGEGSAGGEKRSTAPSAAASASASAAASSPAGGGAEALELLEHCGVCRERLRPEREPRLLPCLHSACSACLGPAAPAAANSSGDGGAAGDGTVVDCPVCKQQCFSKDIVENYFMRDSGSKAATDAQDANQCCTSCEDNAPATSYCVECSEPLCETCVEAHQRVKYTKDHTVRSTGPAKSRDGERTVYCNVHKHEPLVLFCESCDTLTCRDCQLNAHKDHQYQFLEDAVRNQRKLLASLVKRLGDKHATLQKSTKEVRSSIRQVSDVQKRVQVDVKMAILQIMKELNKRGRVLVNDAQKVTEGQQERLERQHWTMTKIQKHQEHILRFASWALESDNNTALLLSKKLIYFQLHRALKMIVDPVEPHGEMKFQWDLNAWTKSAEAFGKIVAERPGTNSTGPAPMAPPRAPGPLSKQGSGSSQPMEVQEGYGFGSGDDPYSSAEPHVSGVKRSRSGEGEVSGLMRKVPRVSLERLDLDLTADSQPPVFKVFPGSTTEDYNLIVIERGAAAAATGQPGTAPAGTPGAPPLAGMAIVKEEETEAAIGAPPTATEGPETKPVLMALAEGPGAEGPRLASPSGSTSSGLEVVAPEGTSAPGGGPGTLDDSATICRVCQKPGDLVMCNQCEFCFHLDCHLPALQDVPGEEWSCSLCHVLPDLKEEDGSLSLDGADSTGVVAKLSPANQRKCERVLLALFCHEPCRPLHQLATDSTFSLDQPGGTLDLTLIRARLQEKLSPPYSSPQEFAQDVGRMFKQFNKLTEDKADVQSIIGLQRFFETRMNEAFGDTKFSAVLVEPPPMSLPGAGLSSQELSGGPGDGP
Turning to B1, the “effect on oligomerization of HP1α” value with FL HP1α is recorded as “Oligomerization of HP1α was further increased”. In addition, the “restoration of closed chromatin at IAPEz, MERVK10C and ETn” value in assay [1] was “able to partially restore closed chromatin at IAPEz, MERVK10C and ETn elements”.
